Residue numbers refer to the chain shown, from its start. Names may count otherwise. Values belong to the binder of their own block, whether it stands above or below them.
Molecular target: kinesin-1 (endogenous, Neuro2a), Q61768;O88447
Experiment: co-immunoprecipitation with anti-GFP antibody, western blot for KHC, quantified
Details: chain shown with the change, lysates of Neuro2a cells expressing GFP-JIP1 constructs, kinesin-1 signal normalized to precipitated GFP-JIP1, n > 3

Chain of kinesin-1 (endogenous, Neuro2a), Q61768;O88447 (chain, as listed by the source, chain 1 of 2): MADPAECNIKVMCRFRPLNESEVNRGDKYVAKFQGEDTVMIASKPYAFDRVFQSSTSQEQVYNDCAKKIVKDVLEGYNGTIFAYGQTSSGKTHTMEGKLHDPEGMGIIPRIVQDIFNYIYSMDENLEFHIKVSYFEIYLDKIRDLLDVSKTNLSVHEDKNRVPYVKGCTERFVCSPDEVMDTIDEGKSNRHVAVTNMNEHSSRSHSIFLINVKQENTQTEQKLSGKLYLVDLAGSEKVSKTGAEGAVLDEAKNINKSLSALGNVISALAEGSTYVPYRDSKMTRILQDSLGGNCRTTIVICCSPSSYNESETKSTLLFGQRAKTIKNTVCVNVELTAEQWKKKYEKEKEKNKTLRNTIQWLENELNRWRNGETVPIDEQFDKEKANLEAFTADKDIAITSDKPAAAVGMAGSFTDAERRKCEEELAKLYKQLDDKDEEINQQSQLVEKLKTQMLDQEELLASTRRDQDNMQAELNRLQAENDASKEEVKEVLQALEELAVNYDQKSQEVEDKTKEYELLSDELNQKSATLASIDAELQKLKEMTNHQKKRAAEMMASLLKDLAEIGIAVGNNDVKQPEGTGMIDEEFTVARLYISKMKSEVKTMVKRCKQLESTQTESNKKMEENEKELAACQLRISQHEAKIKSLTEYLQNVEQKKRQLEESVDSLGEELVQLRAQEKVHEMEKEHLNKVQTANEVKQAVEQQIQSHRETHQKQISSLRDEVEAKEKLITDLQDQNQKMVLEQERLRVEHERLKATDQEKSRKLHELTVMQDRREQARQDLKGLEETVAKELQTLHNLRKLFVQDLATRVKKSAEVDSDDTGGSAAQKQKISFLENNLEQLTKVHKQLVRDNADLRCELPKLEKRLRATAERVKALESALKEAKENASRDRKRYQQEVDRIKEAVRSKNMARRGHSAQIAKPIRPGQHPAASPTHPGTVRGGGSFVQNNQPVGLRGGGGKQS
Chain of kinesin-1 (endogenous, Neuro2a), Q61768;O88447 (chain, as listed by the source, chain 2 of 2): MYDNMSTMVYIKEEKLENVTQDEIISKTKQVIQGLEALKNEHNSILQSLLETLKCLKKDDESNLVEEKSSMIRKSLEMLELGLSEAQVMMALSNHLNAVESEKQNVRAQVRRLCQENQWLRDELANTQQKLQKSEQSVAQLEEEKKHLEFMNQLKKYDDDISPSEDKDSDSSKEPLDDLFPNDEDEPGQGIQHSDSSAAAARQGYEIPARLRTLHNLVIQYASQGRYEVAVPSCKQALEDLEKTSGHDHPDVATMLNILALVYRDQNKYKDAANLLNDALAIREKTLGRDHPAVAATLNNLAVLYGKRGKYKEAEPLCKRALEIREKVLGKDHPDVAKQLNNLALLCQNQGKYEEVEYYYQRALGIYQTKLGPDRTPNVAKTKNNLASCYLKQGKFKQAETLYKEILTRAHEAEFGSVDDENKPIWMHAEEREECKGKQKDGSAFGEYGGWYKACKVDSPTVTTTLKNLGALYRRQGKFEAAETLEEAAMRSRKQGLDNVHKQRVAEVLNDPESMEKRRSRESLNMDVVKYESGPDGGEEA

percent of parent: 13.4
B1: GFP-JIP1-WT, Q9WVI9-1 V581A (protein)
chain: MAERESGLGGGAASPPAASPFLGLHIASPPNFRLTHDISLEEFEDEDLSEITDECGISLQCKDTLSLRPPRAGLLSAGSSGSAGSRLQAEMLQMDLIDAAGDTPGAEDDEEEEDDELAAQRPGVGPPKAESNQDPAPRSQGQGPGTGSGDTYRPKRPTTLNLFPQVPRSQDTLNNNSLGKKHSWQDRVSRSSSPLKTGEQTPPHEHICLSDELPPQGSPVPTQDRGTSTDSPCRRSAATQMAPPSGPPATAPGGRGHSHRDRIHYQADVRLEATEEIYLTPVQRPPDPAEPTSTFMPPTESRMSVSSDPDPAAYSVTAGRPHPSISEEDEGFDCLSSPERAEPPGGGWRGSLGEPPPPPRASLSSDTSALSYDSVKYTLVVDEHAQLELVSLRPCFGDYSDESDSATVYDNCASASSPYESAIGEEYEEAPQPRPPTCLSEDSTPDEPDVHFSKKFLNVFMSGRSRSSSAESFGLFSCVINGEEHEQTHRAIFRFVPRHEDELELEVDDPLLVELQAEDYWYEAYNMRTGARGVFPAYYAIEVTKEPEHMAALAKNSDWIDQFRVKFLGSVQVPYHKGNDALCAAMQKIATTRRLTVHFNPPSSCVLEISVRGVKIGVKADDALEAKGNKCSHFFQLKNISFCGYHPKNNKYFGFITKHPADHRFACHVFVSEDSTKALAESVGRAFQQFYKQFVEYTCPTEDIYLE

percent of parent: 3.7
B2: GFP-JIP1-WT, Q9WVI9-1 F642V (protein)
chain: B1 chain with A581V, F642V

percent of parent: 25.4
B3: GFP-JIP1-WT, Q9WVI9-1 F687V (protein)
chain: B1 chain with A581V, F687V

— article PMC3599065
